Data from the supplement of paper PMC7125110.
± gives the standard error. For some assays here: Fewer inactive variants are shown than the library holds.

B1: glmS ribozyme (parent)
chain: AUAAAAGCGCCAGAACUACAGAAAUGUAGUUGACGAGGAGGAGGUUUAUCGAAUUUUCGGCGGAUGCCUCCAAA

What was measured:
Details in all cases: with glucosamine-6-phosphate
glucosamine-6-phosphate [1] = variants of: B1; test: kcat; higher = faster cleavage; RNA array
In short: (§1)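 The measurements used barcoded ribozyme variants on sequenced MiSeq chips, transcribed in situ by E. coli RNA polymerase and tracked at 37 °C with a hybridised Cy3 probe. Glucosamine-6-phosphate, 40 μM to 10 mM in HEPES/KCl/Mg(OAc)2 buffer, was flowed in while tiles were imaged over ~14 h. Baseline-normalised signals, also normalised to non-cleaving reference variants, gave per-tile medians that were fit to one- or two-exponential decays for kobs. kcat and KM resulted from weighted Michaelis–Menten fits across concentrations.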

glucosamine-6-phosphate [2] = variants of: B1; test: self-cleavage kobs at 40 uM GlcN6P; higher = faster cleavage; RNA array
In short: as §1

glucosamine-6-phosphate [3] = variants of: B1; test: KM; higher = weaker cofactor use; RNA array
In short: as §1

glucosamine-6-phosphate [4] = variants of: B1; test: self-cleavage kobs at 160 uM GlcN6P; higher = faster cleavage; RNA array
In short: as §1

glucosamine-6-phosphate [5] = variants of: B1; test: self-cleavage kobs at 640 uM GlcN6P; higher = faster cleavage; RNA array
In short: as §1

glucosamine-6-phosphate [6] = variants of: B1; test: self-cleavage kobs at 2500 uM GlcN6P; higher = faster cleavage; RNA array
In short: as §1

glucosamine-6-phosphate [7] = variants of: B1; test: self-cleavage kobs at 10000 uM GlcN6P; higher = faster cleavage; RNA array
In short: as §1

| Variant | kcat (glucosamine-6-phosphate [1]) [s⁻¹] | self-cleavage kobs at 40 uM GlcN6P (glucosamine-6-phosphate [2]) [s⁻¹] | KM (glucosamine-6-phosphate [3]) [µM] | self-cleavage kobs at 160 uM GlcN6P (glucosamine-6-phosphate [4]) [s⁻¹] | self-cleavage kobs at 640 uM GlcN6P (glucosamine-6-phosphate [5]) [s⁻¹] | self-cleavage kobs at 2500 uM GlcN6P (glucosamine-6-phosphate [6]) [s⁻¹] | self-cleavage kobs at 10000 uM GlcN6P (glucosamine-6-phosphate [7]) [s⁻¹] |
| --- | --- | --- | --- | --- | --- | --- | --- |
| G7A A14C | 1.34e-05 ± 5.9e-06 | < 1e-05 |  |  |  |  |  |
| G29U C50U | 1.34e-05 ± 9.1e-07 |  | 3520 ± 700 | < 1e-05 |  |  |  |
| G13C A15G | 0.000223 ± 1.1e-05 |  | 2950 ± 270 |  | 4.12e-05 ± 8e-06 | 9.91e-05 ± 1.3e-05 | 0.000176 ± 2.8e-05 |
| U30C C58A | 2.21e-05 ± 6e-06 |  |  |  |  | 2.92e-05 ± 1.1e-05 |  |
| C50A G66C | 1.65e-05 ± 3e-06 |  |  |  |  |  |  |
| A14C U46C | 0.000346 ± 4.7e-05 |  | 1090 ± 350 | 5.14e-05 ± 1.9e-05 | 0.000128 ± 2.4e-05 |  | 0.000326 ± 4.5e-05 |
| U49A C70G | 1.43e-05 ± 3.7e-06 |  |  |  |  |  |  |
| U47A A48U | 0.000219 ± 1.3e-05 |  | 1570 ± 190 |  | 6.18e-05 ± 1e-05 | 0.000143 ± 2.2e-05 | 0.000181 ± 3.1e-05 |
| G35U G59U G66U | < 1e-05 |  |  |  | < 1e-05 |  |  |
| G59U C68U | 1.5e-05 ± 6.2e-06 | < 1e-05 |  |  |  | 2.67e-05 ± 1.3e-05 |  |
| G29C C58A | 0.000126 ± 8e-06 |  | 1420 ± 280 |  | 3.49e-05 ± 1.2e-05 | 8.42e-05 ± 1.4e-05 | 0.000108 ± 1.5e-05 |
| A15G U69G | 7.83e-05 ± 1.2e-05 | 3.29e-05 ± 1.2e-05 |  | 5.34e-05 ± 2.7e-05 | 6.2e-05 ± 1.2e-05 | 0.00012 ± 1.7e-05 | 7.05e-05 ± 9.2e-06 |
| U46C A53U | 0.00168 ± 0.00018 | 3.88e-05 ± 1.2e-05 | 1640 ± 260 | 0.000145 ± 3.3e-05 | 0.000471 ± 9.9e-05 | 0.0012 ± 0.00023 | 0.00133 ± 0.00028 |
| G40C U46G | 0.000983 ± 6.7e-05 |  | 2350 ± 280 | 7.1e-05 ± 3.3e-05 | 0.00021 ± 4.6e-05 | 0.000525 ± 0.00016 | 0.000789 ± 0.00015 |
| A15G C50U | 9.75e-05 ± 1.3e-05 |  | 2370 ± 1000 |  |  | 4.52e-05 ± 1.3e-05 | 8.01e-05 ± 1.2e-05 |
| U45A C50U | 0.000477 ± 0.00018 |  |  |  |  | 3.25e-05 ± 1.4e-05 | 0.000107 ± 1.3e-05 |
| C58G C61A | 1.85e-05 ± 4e-06 |  |  |  |  |  |  |
| G13U U45A | 0.00214 ± 0.00039 | 4.66e-05 ± 2.1e-05 | 2010 ± 490 | 0.000142 ± 5.1e-05 | 0.000543 ± 0.00015 | 0.00117 ± 0.00036 |  |
| U47A C68G | 4.89e-05 ± 9.9e-06 |  |  |  | 4.99e-05 ± 1.2e-05 | 6.81e-05 ± 1.2e-05 | 3.56e-05 ± 9.2e-06 |
